This note sets out measurements from patent US20140072613A1, “Compositions and Methods for Treating Cutaneous Scarring” (priority 2012, published 2014).

What all share (assay): biochemical
Format in all cases: biochemical

Assay [1] has as its target 266 human kinases (Homo sapiens, UniProt P42685). The settings on record: PTK5(h); 100 μM. In outline: (§1)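 Read-out by scintillation counting of radiolabelled, positively charged substrate bound to negatively charged filter; activity normalised to 100% control. Phosphate transferred from radiolabelled ATP.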
In assay [2] the target is 266 human kinases (Homo sapiens, UniProt P53779). The settings on record: JNK3(h); 100 μM. The gist of the method: as §1
Chain of 266 human kinases (Homo sapiens, UniProt P53779) (P53779 whole entry): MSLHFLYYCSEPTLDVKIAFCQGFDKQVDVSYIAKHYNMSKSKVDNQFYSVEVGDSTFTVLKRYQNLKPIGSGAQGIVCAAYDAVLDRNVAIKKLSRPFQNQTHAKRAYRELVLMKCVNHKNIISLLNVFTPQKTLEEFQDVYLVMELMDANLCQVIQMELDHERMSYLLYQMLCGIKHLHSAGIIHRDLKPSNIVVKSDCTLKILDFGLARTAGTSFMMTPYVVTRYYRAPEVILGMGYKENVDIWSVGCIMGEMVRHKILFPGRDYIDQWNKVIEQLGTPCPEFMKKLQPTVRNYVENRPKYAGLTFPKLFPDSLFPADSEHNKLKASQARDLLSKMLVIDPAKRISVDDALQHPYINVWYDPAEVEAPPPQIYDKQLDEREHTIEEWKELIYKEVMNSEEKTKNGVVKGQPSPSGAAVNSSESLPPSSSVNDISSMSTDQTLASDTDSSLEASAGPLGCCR
Assay [3] concerns the target T1, 266 human kinases (Homo sapiens, UniProt Q96BR1).
T1 sequence (Q96BR1 1-496): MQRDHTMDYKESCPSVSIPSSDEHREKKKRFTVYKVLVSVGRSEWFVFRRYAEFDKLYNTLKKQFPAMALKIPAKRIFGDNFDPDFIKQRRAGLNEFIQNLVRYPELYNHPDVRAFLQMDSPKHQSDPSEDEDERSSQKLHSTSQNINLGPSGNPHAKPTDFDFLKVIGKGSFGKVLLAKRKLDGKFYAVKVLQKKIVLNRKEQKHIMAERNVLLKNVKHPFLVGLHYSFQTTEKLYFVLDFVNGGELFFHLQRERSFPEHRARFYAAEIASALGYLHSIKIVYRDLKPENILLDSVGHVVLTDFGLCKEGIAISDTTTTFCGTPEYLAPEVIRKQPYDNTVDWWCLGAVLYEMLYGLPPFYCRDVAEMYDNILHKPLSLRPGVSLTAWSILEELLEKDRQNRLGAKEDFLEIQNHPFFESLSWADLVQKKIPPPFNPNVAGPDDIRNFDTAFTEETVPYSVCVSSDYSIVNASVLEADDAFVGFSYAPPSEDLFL
The settings on record: SGK3(h); 100 μM. In outline: as §1

Assay [4] addresses 266 human kinases (Homo sapiens, UniProt Q9UPE1). The settings on record: MSSK1(h); 100 μM. In outline:
as §1

The target of assay [5] is 266 human kinases (Homo sapiens, UniProt P08069). The settings on record: IGF-1R(h), 100 μM. The gist of the method: as §1
Assay [6] has as its target 266 human kinases (Homo sapiens, UniProt P09619). The settings on record: PDGFRβ(h); 100 μM. In outline: as §1
In assay [7] the target is 266 human kinases (Homo sapiens, UniProt P08581, Y1230D). Particulars: Met(Y1248D)(h); 100 μM. In outline: as §1
In assay [8] the target is T2, 266 human kinases (Homo sapiens, UniProt P51956).
T2 sequence (P51956 1-506): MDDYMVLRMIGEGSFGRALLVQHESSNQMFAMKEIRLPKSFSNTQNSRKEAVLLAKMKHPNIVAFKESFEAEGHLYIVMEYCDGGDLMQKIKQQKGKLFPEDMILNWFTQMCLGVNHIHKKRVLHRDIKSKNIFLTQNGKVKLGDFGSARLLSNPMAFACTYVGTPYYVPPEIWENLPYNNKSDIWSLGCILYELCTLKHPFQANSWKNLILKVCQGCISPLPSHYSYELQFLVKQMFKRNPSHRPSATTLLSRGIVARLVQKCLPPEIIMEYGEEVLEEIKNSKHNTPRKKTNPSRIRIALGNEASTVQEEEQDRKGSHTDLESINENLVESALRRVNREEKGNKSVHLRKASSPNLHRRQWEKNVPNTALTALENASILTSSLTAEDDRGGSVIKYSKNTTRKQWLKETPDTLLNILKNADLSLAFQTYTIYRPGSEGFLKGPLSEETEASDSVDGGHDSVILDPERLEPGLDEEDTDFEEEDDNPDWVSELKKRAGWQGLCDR
The settings on record: NEK3(h); 100 μM. The gist of the method:
as §1

Assay [9] has as its target 266 human kinases (Homo sapiens, UniProt P54756). The settings on record: EphA5(h); 100 μM. In outline: as §1
Assay [10] has as its target T3, 266 human kinases (Homo sapiens, UniProt Q08881).
T3 sequence (Q08881 1-620): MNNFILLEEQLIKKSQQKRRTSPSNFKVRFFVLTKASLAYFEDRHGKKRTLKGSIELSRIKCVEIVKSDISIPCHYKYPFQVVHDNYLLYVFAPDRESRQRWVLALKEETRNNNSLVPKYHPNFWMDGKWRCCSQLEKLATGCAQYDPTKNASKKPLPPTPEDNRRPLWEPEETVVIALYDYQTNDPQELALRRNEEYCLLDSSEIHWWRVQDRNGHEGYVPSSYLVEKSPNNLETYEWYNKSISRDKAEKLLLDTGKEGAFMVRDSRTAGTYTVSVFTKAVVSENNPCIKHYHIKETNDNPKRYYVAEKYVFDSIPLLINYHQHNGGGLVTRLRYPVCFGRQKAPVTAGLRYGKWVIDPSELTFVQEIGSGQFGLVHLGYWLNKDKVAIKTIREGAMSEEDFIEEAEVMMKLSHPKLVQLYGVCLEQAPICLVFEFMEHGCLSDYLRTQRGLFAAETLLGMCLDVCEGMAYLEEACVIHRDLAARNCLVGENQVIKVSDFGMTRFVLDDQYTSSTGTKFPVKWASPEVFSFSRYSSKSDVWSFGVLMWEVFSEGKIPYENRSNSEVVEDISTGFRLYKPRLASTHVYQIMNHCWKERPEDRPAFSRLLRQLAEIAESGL
The settings on record: Itk(h); 100 μM. The gist of the method: as §1

For assay [11], the target named is 266 human kinases (Homo sapiens, UniProt O96017, R145W). The settings on record: CHK2(R145W)(h); 100 μM. The gist of the method: as §1
Chain of 266 human kinases (Homo sapiens, UniProt O96017, R145W) (O96017 whole entry R145W): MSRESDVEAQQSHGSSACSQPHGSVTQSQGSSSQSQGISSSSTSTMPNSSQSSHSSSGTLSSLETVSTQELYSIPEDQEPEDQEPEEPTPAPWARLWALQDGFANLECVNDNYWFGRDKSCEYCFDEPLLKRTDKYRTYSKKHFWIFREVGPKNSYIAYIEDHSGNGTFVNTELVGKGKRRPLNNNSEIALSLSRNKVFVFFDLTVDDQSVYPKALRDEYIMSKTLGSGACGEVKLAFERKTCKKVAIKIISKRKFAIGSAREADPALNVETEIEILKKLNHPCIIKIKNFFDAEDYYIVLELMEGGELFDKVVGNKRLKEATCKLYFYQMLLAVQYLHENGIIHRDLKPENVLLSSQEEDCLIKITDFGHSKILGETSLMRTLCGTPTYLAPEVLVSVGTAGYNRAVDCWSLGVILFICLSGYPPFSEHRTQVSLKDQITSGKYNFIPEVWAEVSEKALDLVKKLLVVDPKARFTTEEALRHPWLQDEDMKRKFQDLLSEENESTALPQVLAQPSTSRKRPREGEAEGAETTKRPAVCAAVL
Assay [12] has as its target T4, 266 human kinases (Homo sapiens, UniProt Q96PF2).
T4 sequence (Q96PF2 1-358): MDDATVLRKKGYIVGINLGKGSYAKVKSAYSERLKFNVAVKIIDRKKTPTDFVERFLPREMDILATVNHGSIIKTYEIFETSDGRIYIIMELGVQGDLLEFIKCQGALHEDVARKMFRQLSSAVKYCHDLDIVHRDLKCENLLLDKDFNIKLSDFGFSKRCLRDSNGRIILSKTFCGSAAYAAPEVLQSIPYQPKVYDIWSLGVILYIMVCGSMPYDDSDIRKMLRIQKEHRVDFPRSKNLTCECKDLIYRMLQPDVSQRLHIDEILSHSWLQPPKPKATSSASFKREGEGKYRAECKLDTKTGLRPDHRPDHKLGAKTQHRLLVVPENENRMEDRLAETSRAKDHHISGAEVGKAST
Particulars: TSSK2(h); 100 μM. In outline: as §1

Chain of 266 human kinases (Homo sapiens, UniProt P54756) (P54756 25-1037): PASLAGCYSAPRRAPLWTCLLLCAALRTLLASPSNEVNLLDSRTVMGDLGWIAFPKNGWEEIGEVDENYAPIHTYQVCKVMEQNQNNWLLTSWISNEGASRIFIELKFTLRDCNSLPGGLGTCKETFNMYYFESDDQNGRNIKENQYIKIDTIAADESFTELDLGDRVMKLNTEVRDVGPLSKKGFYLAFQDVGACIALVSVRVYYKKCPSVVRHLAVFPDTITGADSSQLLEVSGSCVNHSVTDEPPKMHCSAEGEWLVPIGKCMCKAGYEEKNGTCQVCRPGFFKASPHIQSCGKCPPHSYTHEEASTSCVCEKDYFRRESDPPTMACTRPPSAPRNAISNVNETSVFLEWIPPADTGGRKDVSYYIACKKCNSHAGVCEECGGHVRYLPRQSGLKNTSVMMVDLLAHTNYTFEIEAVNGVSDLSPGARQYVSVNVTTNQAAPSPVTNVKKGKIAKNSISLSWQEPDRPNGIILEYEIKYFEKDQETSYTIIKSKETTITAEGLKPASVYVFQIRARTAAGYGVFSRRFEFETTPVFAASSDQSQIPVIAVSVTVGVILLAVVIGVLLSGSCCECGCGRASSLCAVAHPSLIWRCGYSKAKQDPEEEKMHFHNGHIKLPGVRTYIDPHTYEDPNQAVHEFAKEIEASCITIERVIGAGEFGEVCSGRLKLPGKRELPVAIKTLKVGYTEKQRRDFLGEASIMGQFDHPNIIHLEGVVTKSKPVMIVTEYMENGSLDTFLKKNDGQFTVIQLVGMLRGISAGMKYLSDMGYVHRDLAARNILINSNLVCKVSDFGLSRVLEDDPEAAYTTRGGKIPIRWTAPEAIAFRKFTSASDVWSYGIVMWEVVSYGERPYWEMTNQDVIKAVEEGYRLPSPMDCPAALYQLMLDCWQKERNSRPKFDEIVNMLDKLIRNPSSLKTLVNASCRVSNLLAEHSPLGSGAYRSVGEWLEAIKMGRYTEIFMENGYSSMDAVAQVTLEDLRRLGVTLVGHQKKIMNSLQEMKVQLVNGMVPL
Chain of 266 human kinases (Homo sapiens, UniProt P42685) (P42685 whole entry): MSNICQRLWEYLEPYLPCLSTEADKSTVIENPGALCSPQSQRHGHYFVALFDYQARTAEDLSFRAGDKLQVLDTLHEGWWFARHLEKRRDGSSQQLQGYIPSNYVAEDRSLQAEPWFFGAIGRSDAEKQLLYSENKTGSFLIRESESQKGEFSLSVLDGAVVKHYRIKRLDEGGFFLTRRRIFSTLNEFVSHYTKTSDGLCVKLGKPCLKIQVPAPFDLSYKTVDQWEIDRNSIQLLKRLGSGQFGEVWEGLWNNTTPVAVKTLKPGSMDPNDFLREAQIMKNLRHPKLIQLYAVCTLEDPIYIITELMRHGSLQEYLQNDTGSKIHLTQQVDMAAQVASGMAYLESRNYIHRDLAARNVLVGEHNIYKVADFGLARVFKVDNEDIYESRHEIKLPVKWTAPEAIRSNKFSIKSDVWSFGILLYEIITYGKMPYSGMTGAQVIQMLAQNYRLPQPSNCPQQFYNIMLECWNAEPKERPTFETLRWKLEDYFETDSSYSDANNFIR
Chain of 266 human kinases (Homo sapiens, UniProt Q9UPE1) (Q9UPE1 whole entry): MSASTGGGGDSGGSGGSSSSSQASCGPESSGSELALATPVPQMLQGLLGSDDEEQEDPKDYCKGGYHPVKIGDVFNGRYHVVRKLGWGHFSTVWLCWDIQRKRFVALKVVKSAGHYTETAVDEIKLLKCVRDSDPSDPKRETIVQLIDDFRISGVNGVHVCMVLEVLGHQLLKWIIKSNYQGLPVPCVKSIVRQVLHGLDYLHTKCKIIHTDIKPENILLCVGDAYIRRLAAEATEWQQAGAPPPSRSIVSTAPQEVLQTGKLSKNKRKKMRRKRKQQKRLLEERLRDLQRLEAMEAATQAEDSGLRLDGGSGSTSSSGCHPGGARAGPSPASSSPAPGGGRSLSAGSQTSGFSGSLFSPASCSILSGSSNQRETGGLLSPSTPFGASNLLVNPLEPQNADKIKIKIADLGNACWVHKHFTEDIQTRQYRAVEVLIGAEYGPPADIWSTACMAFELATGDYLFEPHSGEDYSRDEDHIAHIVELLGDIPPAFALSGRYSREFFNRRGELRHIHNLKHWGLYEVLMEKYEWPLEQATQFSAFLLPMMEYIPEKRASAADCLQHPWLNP
Chain of 266 human kinases (Homo sapiens, UniProt P09619) (P09619 33-1106): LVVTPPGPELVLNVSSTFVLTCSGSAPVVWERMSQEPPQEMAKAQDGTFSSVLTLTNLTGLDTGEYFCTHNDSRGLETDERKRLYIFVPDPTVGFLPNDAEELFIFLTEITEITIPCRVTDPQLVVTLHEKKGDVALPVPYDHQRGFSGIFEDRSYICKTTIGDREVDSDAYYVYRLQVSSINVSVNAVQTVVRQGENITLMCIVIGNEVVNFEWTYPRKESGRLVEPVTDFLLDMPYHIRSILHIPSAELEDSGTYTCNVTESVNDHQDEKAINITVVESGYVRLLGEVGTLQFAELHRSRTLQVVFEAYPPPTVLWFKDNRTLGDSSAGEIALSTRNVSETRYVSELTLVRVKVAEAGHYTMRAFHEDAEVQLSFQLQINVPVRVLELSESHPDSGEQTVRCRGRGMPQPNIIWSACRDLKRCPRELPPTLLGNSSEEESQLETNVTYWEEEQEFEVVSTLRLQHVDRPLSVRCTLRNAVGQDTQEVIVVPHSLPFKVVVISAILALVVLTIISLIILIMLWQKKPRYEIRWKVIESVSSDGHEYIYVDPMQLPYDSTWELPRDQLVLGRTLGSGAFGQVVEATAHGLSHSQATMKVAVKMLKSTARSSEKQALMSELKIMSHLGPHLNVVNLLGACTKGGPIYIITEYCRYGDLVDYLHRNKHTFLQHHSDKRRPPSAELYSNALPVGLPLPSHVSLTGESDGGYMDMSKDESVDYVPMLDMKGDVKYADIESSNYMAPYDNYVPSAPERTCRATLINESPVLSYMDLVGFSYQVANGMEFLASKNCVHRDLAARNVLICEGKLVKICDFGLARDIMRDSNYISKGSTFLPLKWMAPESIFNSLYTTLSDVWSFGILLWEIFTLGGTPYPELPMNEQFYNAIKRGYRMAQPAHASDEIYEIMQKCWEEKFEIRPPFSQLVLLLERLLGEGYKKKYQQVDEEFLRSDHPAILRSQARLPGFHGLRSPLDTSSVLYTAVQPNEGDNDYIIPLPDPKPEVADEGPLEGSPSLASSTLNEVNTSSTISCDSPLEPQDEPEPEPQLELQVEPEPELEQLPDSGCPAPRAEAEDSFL

Turning to “YARAAARQARAKALNRQLGVA (mammal) [MMI-0200]”, the “% activity” value was 108% with 266 human kinases [1]; 90% with 266 human kinases [2]; 58% with 266 human kinases [3]; 100% with 266 human kinases [4]; 94% in the assay with 266 human kinases [5] (activated); 49% with 266 human kinases [5]. In addition, the “% activity” value with 266 human kinases [6] came out at 137%; in the assay with 266 human kinases [7] it was 118%; in the assay with 266 human kinases [8] it was 100%; in the assay with 266 human kinases [9], 123%; with 266 human kinases [10] it was 98%; with 266 human kinases [11] it was 81%. Moreover, in the assay with 266 human kinases [12], the “% activity” value turned out to be 91%.

In the case of “HRRIKAWLKKIKALARQLGVAA (mammal) [MMI-0500]”, the “% activity” value with 266 human kinases [1] was 96%; in the assay with 266 human kinases [2], 171%; in the assay with 266 human kinases [3], −3%; with 266 human kinases [4] it was 22%; with 266 human kinases [5] (activated), 45%; with 266 human kinases [6] it was 40%. Also, the “% activity” value is 218% in the assay with 266 human kinases [7]; 20% in the assay with 266 human kinases [8]; 42% with 266 human kinases [9]; 7% with 266 human kinases [10]; 3% in the assay with 266 human kinases [11]; 92% in the assay with 266 human kinases [12].
